The results in this text go back to PMC7616792, “The structural mechanism of dimeric DONSON in replicative helicase activation” (Molecular cell, 2023).

In data set [1] the target is DONSON WM (W234L; M463T) (Xenopus laevis) (UniProt Q5U4U4). As to the kind of experiment: mass photometry; protein concentration varied (Figure S7); DONSON WM at 20 nM; monomer to dimer.
Data set [2] deals with the molecule itself. As to the kind of experiment: mass photometry; recombinant DONSON proteins diluted ten-fold into Dulbecco PBS to a final concentration of 3 to 5 nM; TwoMP (Refeyn); monomer to dimer.
For data set [3], the target named is T1, recombinant FLAG5, His6-tagged GINS (Psf1, Psf2, Psf3 and Sld5) (Xenopus laevis, UniProt Q7ZT47 1-196; Q7ZT46 1-185; Q7ZT01 1-210; Q7ZT48 1-221).
T1 construct: Psf1, subunit of GINS, Xenopus laevis; Psf2, subunit of GINS, Xenopus laevis; Psf3, subunit of GINS, Xenopus laevis; Sld5, subunit of GINS, Xenopus laevis; also called recombinant GINS; FLAG-tagged GINS; copies: + + +
T1 sequence (looked up) 1: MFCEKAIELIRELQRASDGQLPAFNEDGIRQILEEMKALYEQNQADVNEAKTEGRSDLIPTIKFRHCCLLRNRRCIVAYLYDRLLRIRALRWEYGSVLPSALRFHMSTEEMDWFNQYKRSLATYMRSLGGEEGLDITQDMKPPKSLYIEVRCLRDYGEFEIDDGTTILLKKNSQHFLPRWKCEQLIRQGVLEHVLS
T1 sequence (looked up) 2: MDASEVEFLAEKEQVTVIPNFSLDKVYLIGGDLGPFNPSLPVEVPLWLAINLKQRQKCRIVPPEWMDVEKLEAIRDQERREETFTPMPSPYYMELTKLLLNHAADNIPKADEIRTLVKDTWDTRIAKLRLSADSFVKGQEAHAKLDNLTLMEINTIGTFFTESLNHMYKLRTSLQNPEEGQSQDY
T1 sequence (looked up) 3: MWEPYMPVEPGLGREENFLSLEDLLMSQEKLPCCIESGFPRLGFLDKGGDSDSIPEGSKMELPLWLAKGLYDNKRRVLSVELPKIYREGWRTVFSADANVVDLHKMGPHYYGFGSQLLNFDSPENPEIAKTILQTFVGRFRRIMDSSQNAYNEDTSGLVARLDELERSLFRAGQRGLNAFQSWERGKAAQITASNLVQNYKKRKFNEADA
T1 sequence (looked up) 4: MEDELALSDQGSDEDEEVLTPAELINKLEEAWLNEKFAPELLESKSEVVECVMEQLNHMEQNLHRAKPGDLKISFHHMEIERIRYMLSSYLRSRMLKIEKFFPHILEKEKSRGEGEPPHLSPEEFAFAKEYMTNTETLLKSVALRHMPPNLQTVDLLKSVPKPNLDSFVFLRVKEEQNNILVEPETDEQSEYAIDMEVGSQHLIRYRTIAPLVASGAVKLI
Nature of the data set: co-IP; recombinant FLAG-tagged GINS immunoprecipitated after incubation with recombinant DONSON variants; blot with an anti-DONSON antibody (Figure S5B). To be noted: both partners purified.

The molecule “DONSON WM (W234L; M463T) (from UniProt Q5U4U4 1-579) (natural protein)” had a stoichiometry N in data set [1] of 2.

B1: DONSON ΔD1 (Δ1-155) (domain or fragment, Xenopus laevis, UniProt Q5U4U4 156-579, looked up)
chain: SVTFPADWSLKTRLLFTSSHSFSWADHLKAQEEAQGLVMQCRATAVNLPHSIQEPKLSTDLRCAFQQSLVHWIHPSLPWVQLFPRIGVDRKMAGKNTPWSQDESLQQVLMSEWALSFTSLYNLLKAKLCPYFYVCTYQFTVLFRAAGLAGSDVITAVMSPTTRGLREAMKNEGITFSQPLVEDDTGKKQKKPEAASQGDINPEKENGTAEADEASDESDEDESFSWLEEMGVEDKIKKPDSISIKLRKEKNEVKLDHKPESVVLVKGTNTFTLLNFLINCKSIVAAAGLQAGLPPTLLSPVAFRGATMHALKARSVNVKTRVNSGYKDQFSLEITGPIMPHSLHSLTMLLQSAQRGSFSAGLYTHEPTAVFNTPIHSQAVKEISADLQNCGLHPCTVEQLTQVNELGKLSLRHLEMTDYRYTWK
notes: DONSON, Xenopus laevis, without residues 1-155 (the unstructured D1 loop); also called DONSON DD1 (D1-155); pET28a-DONSON ΔD1; source: recombinant (pET28a vector)
As to B1, the “stoichiometry N” value in data set [2] was found to be 2.

B2: DONSONΔ24 (truncation of residues 1–24) (domain or fragment, Xenopus laevis, UniProt Q5U4U4 25-579, looked up)
chain: RSRSEASKTGLSPFSPGDVIKRVPGLRPFSPGPNKGAGVKRRNPFASLENTVCSPVKRRAETVAEYGAASLEPRALSAVRPSCLGQDSPEPPQFNSVEDVIWGDPLAADADPLVKTESPEKPAPACEIPKGSVTFPADWSLKTRLLFTSSHSFSWADHLKAQEEAQGLVMQCRATAVNLPHSIQEPKLSTDLRCAFQQSLVHWIHPSLPWVQLFPRIGVDRKMAGKNTPWSQDESLQQVLMSEWALSFTSLYNLLKAKLCPYFYVCTYQFTVLFRAAGLAGSDVITAVMSPTTRGLREAMKNEGITFSQPLVEDDTGKKQKKPEAASQGDINPEKENGTAEADEASDESDEDESFSWLEEMGVEDKIKKPDSISIKLRKEKNEVKLDHKPESVVLVKGTNTFTLLNFLINCKSIVAAAGLQAGLPPTLLSPVAFRGATMHALKARSVNVKTRVNSGYKDQFSLEITGPIMPHSLHSLTMLLQSAQRGSFSAGLYTHEPTAVFNTPIHSQAVKEISADLQNCGLHPCTVEQLTQVNELGKLSLRHLEMTDYRYTWK
notes: DONSON, Xenopus laevis, without residues 1-24; See the note of m17 on a possible Myc tag; also called DONSON D24 (D1-24); pET28a-DONSON Δ24 (1-24 removed); source: E. coli BL21 (DE3), purified (Ni-NTA)
With B2, the “stoichiometry N” value in data set [2] was 2.

B3: recombinant Xenopus laevis DONSON WT (natural protein)
chain: MAELLPGYSPSFKKPSEILRLSRRRSRSEASKTGLSPFSPGDVIKRVPGLRPFSPGPNKGAGVKRRNPFASLENTVCSPVKRRAETVAEYGAASLEPRALSAVRPSCLGQDSPEPPQFNSVEDVIWGDPLAADADPLVKTESPEKPAPACEIPKGSVTFPADWSLKTRLLFTSSHSFSWADHLKAQEEAQGLVMQCRATAVNLPHSIQEPKLSTDLRCAFQQSLVHWIHPSLPWVQLFPRIGVDRKMAGKNTPWSQDESLQQVLMSEWALSFTSLYNLLKAKLCPYFYVCTYQFTVLFRAAGLAGSDVITAVMSPTTRGLREAMKNEGITFSQPLVEDDTGKKQKKPEAASQGDINPEKENGTAEADEASDESDEDESFSWLEEMGVEDKIKKPDSISIKLRKEKNEVKLDHKPESVVLVKGTNTFTLLNFLINCKSIVAAAGLQAGLPPTLLSPVAFRGATMHALKARSVNVKTRVNSGYKDQFSLEITGPIMPHSLHSLTMLLQSAQRGSFSAGLYTHEPTAVFNTPIHSQAVKEISADLQNCGLHPCTVEQLTQVNELGKLSLRHLEMTDYRYTWK
notes: DONSON (Downstream neighbor of Son), Xenopus laevis; also called WT DONSON; WT recombinant DONSON; source: E. coli BL21 (DE3), purified (Ni-NTA)
With B3, the binding result in data set [3] is reported as “binds”. The “stoichiometry N” value in data set [2] stood at 2.

B4: DONSON DEWS (D374A; E377A; W381A; S437A) (natural protein, Xenopus laevis)
chain: MAELLPGYSPSFKKPSEILRLSRRRSRSEASKTGLSPFSPGDVIKRVPGLRPFSPGPNKGAGVKRRNPFASLENTVCSPVKRRAETVAEYGAASLEPRALSAVRPSCLGQDSPEPPQFNSVEDVIWGDPLAADADPLVKTESPEKPAPACEIPKGSVTFPADWSLKTRLLFTSSHSFSWADHLKAQEEAQGLVMQCRATAVNLPHSIQEPKLSTDLRCAFQQSLVHWIHPSLPWVQLFPRIGVDRKMAGKNTPWSQDESLQQVLMSEWALSFTSLYNLLKAKLCPYFYVCTYQFTVLFRAAGLAGSDVITAVMSPTTRGLREAMKNEGITFSQPLVEDDTGKKQKKPEAASQGDINPEKENGTAEADEASDESAEDASFSALEEMGVEDKIKKPDSISIKLRKEKNEVKLDHKPESVVLVKGTNTFTLLNFLINCKAIVAAAGLQAGLPPTLLSPVAFRGATMHALKARSVNVKTRVNSGYKDQFSLEITGPIMPHSLHSLTMLLQSAQRGSFSAGLYTHEPTAVFNTPIHSQAVKEISADLQNCGLHPCTVEQLTQVNELGKLSLRHLEMTDYRYTWK
notes: DONSON, Xenopus laevis; also called pET28a-DONSON-DEWS; source: E. coli BL21 (DE3), purified (Ni-NTA)
As to B4, the “stoichiometry N” value in data set [2] was 2.

B5: DONSON DEW (D374A; E377A; W381A) (natural protein, Xenopus laevis)
chain: MAELLPGYSPSFKKPSEILRLSRRRSRSEASKTGLSPFSPGDVIKRVPGLRPFSPGPNKGAGVKRRNPFASLENTVCSPVKRRAETVAEYGAASLEPRALSAVRPSCLGQDSPEPPQFNSVEDVIWGDPLAADADPLVKTESPEKPAPACEIPKGSVTFPADWSLKTRLLFTSSHSFSWADHLKAQEEAQGLVMQCRATAVNLPHSIQEPKLSTDLRCAFQQSLVHWIHPSLPWVQLFPRIGVDRKMAGKNTPWSQDESLQQVLMSEWALSFTSLYNLLKAKLCPYFYVCTYQFTVLFRAAGLAGSDVITAVMSPTTRGLREAMKNEGITFSQPLVEDDTGKKQKKPEAASQGDINPEKENGTAEADEASDESAEDASFSALEEMGVEDKIKKPDSISIKLRKEKNEVKLDHKPESVVLVKGTNTFTLLNFLINCKSIVAAAGLQAGLPPTLLSPVAFRGATMHALKARSVNVKTRVNSGYKDQFSLEITGPIMPHSLHSLTMLLQSAQRGSFSAGLYTHEPTAVFNTPIHSQAVKEISADLQNCGLHPCTVEQLTQVNELGKLSLRHLEMTDYRYTWK
notes: DONSON, Xenopus laevis; also called pET28a-DONSON-DEW; source: E. coli BL21 (DE3), purified (Ni-NTA)
Regarding B5, the “stoichiometry N” value in data set [2] is 2.

B6: DONSON S437A (natural protein, Xenopus laevis)
chain: MAELLPGYSPSFKKPSEILRLSRRRSRSEASKTGLSPFSPGDVIKRVPGLRPFSPGPNKGAGVKRRNPFASLENTVCSPVKRRAETVAEYGAASLEPRALSAVRPSCLGQDSPEPPQFNSVEDVIWGDPLAADADPLVKTESPEKPAPACEIPKGSVTFPADWSLKTRLLFTSSHSFSWADHLKAQEEAQGLVMQCRATAVNLPHSIQEPKLSTDLRCAFQQSLVHWIHPSLPWVQLFPRIGVDRKMAGKNTPWSQDESLQQVLMSEWALSFTSLYNLLKAKLCPYFYVCTYQFTVLFRAAGLAGSDVITAVMSPTTRGLREAMKNEGITFSQPLVEDDTGKKQKKPEAASQGDINPEKENGTAEADEASDESDEDESFSWLEEMGVEDKIKKPDSISIKLRKEKNEVKLDHKPESVVLVKGTNTFTLLNFLINCKAIVAAAGLQAGLPPTLLSPVAFRGATMHALKARSVNVKTRVNSGYKDQFSLEITGPIMPHSLHSLTMLLQSAQRGSFSAGLYTHEPTAVFNTPIHSQAVKEISADLQNCGLHPCTVEQLTQVNELGKLSLRHLEMTDYRYTWK
notes: DONSON, Xenopus laevis; also called DONSON Ser437Ala; pET28a-DONSON-S437A; source: E. coli BL21 (DE3), purified (Ni-NTA)
Consider B6, for which, in data set [2], the “stoichiometry N” value was 2.

B7: DONSON 3A (V473A; R476A; Y481A) (natural protein, Xenopus laevis)
chain: MAELLPGYSPSFKKPSEILRLSRRRSRSEASKTGLSPFSPGDVIKRVPGLRPFSPGPNKGAGVKRRNPFASLENTVCSPVKRRAETVAEYGAASLEPRALSAVRPSCLGQDSPEPPQFNSVEDVIWGDPLAADADPLVKTESPEKPAPACEIPKGSVTFPADWSLKTRLLFTSSHSFSWADHLKAQEEAQGLVMQCRATAVNLPHSIQEPKLSTDLRCAFQQSLVHWIHPSLPWVQLFPRIGVDRKMAGKNTPWSQDESLQQVLMSEWALSFTSLYNLLKAKLCPYFYVCTYQFTVLFRAAGLAGSDVITAVMSPTTRGLREAMKNEGITFSQPLVEDDTGKKQKKPEAASQGDINPEKENGTAEADEASDESDEDESFSWLEEMGVEDKIKKPDSISIKLRKEKNEVKLDHKPESVVLVKGTNTFTLLNFLINCKSIVAAAGLQAGLPPTLLSPVAFRGATMHALKARSVNAKTAVNSGAKDQFSLEITGPIMPHSLHSLTMLLQSAQRGSFSAGLYTHEPTAVFNTPIHSQAVKEISADLQNCGLHPCTVEQLTQVNELGKLSLRHLEMTDYRYTWK
notes: DONSON, Xenopus laevis; also called pET28a-DONSON-3A; source: E. coli BL21 (DE3), purified (Ni-NTA)
Take B7: the binding result in data set [3] is given as “binds”. Besides, the “stoichiometry N” value in data set [2] was 2.
